In article PMC4150794, “Homodimerization of RBPMS2 through a new RRM-interaction motif is necessary to control smooth muscle plasticity” (Nucleic Acids Research, 2014):

Biological target: the molecule itself
Experiment: SEC-MALS; Superdex 75 10/300, 20 mM Tris-HCl pH 8, 300 mM NaCl; loaded at 2 mg/ml (RBPMS2-Nter) or 4 mg/ml (RBPMS2-Nter-L49E); monomer to dimer

B1: RBPMS2-Nter (human RBPMS2 residues 27-117, RRM domain) (domain or fragment)
chain: not shown
notes: 15N- or 15N/13C-labelled for NMR; also called pET22-RBPMS2-Nter; RRM domain of RBPMS2; source: E. coli BL231DE3 (so in the source), purified (His Trap FF)
  stoichiometry N: 2
